To fix the notation:
B1: Splicing factor rtf2 (Schizosaccharomyces pombe (strain ATCC 38366 / 972)), Q10154 (parent)
chain: MGNDGGSLPTRNELVKEPGKVPPLDIDFKRSVKSSQFSQCAITDEPLYPPIVSCGLGKLYNKASILQMLLDRSSVPKSPSHIKSLKDVVQLQVELDDSGKVLWLCPITRHVMSDTYQFAYIVPCGHVFEYSALKQFGEKMCFQCNQVYEEKDVIPINPNAEQLKTLSKRLLDLALSEKTHSLNKASKKSNKNGDKKRKHVSKSNSKHAKHELRTNRMLDGENVKSETSVTDMERVKRVKI
partner: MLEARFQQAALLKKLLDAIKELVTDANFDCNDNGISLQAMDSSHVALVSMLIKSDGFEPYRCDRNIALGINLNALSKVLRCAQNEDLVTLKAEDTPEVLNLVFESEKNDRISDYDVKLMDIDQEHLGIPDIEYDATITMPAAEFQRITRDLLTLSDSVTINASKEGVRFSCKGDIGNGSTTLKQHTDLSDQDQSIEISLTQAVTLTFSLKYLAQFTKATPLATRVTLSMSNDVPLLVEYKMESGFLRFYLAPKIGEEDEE

The test covers variants of B1. The conditions noted are these: with pcna_schpo pcn1, Q03392.
Take MGNDGGSLPTRNELVKEPGKVPPLDIDFKRSVKSSQFSQCAITDEPLYPPIVSCGLGKLYNKASILQMLLDRSSVPKSPSHIKSLKDVVQLQVELDDSGKVLWLCPITRHVMSDTYQFAYIVPCGHVFEYSALKQFGEKMGFQCNQVYEEKDVIPINPNAEQLKTLSKRLLDLALSEKTHSLNKASKKSNKNGDKKRKHVSKSNSKHAKHELRTNRMLDGENVKSETSVTDMERVKRVKI [C141G]: the “effect of a mutation on the interaction” value was “disrupting interaction”.

The values are drawn from IntAct's records for PubMed 19416828.
